Test results taken from patent US7452965.
Bridge positions count the residues as written; N and C are the ends. Ends that are not written are not given here.

What was measured:
[1] = biological target: HT29 protein (unidentified protease-sensitive cell surface protein on HT29 colon carcinoma cells that the RPM peptide binds); test: competition with RPM displaying phage on HT29 cells, real time PCR
[2] = biological target: HT29 protein (unidentified protease-sensitive cell surface protein on HT29 colon carcinoma cells that the RPM peptide binds); test: competition of synthetic peptide with RPM phage on HT29 cells, real time PCR; percent of phage bound without competitor
[3] = biological target: HT29 protein (unidentified protease-sensitive cell surface protein on HT29 colon carcinoma cells that the RPM peptide binds); test: competition with RPM phage on HT29 cells, real time PCR
[4] = biological target: HT29 protein (unidentified protease-sensitive cell surface protein on HT29 colon carcinoma cells that the RPM peptide binds); test: competition of non-specific peptide with RPM phage on HT29 cells, real time PCR; 100% means no competition

EC50 [1] [µM]	fold shift of the EC50 of competition against the RPM peptide [1] [fold]	other results	Binder
5		percent of RPM phage binding remaining [2]: < 4%	CPIEDRPMC (disulfide 1-9 (inferred)) [RPM peptide … (SEQ ID NO: 134), synthetic, oxidized to form a disulfide bond]
690	100		CPIEDAPMC [APM peptide (RPM peptide with the arginine mutated to alanine)]
545	100		CPIEDRPAC [RPA peptide (RPM peptide with the methionine mutated to alanine)]
		fold less potent than RPM in competition [3]: > 100 fold	CPIRPMEDC [RPM middle peptide … (SEQ ID NO: 137)]
		percent of RPM phage binding remaining [4]: 100%	CKHLGPQLC (disulfide 1-9 (inferred)) [non-specific peptide … (SEQ ID NO: 135), synthetic, oxidized to form a disulfide bond]
